Data taken from the supplement of paper PMC10065799, “High-throughput profiling of sequence recognition by tyrosine kinases and SH2 domains using bacterial peptide display” (eLife, 2023).

Assays:
AncSZ = test: phosphorylation enrichment, bacterial display (enrichment ratio); higher = better substrate or ligand; peptides without Tyr show the background
EPHB1 = EPHB1 (UniProt P54762); test: as above
EPHB2 = EPHB2 (UniProt P29323); test: as above
FGFR1 = FGFR1 (UniProt P11362); test: as above
FGFR3 = FGFR3 (UniProt P22607); test: as above
Fer (mouse) = test: as above
Fes = Fes (UniProt P07332); test: as above
Fyn = Fyn (UniProt P06241); test: as above
Hck = Hck (UniProt P08631); test: as above
Sequence of Hck (P08631 whole entry, looked up): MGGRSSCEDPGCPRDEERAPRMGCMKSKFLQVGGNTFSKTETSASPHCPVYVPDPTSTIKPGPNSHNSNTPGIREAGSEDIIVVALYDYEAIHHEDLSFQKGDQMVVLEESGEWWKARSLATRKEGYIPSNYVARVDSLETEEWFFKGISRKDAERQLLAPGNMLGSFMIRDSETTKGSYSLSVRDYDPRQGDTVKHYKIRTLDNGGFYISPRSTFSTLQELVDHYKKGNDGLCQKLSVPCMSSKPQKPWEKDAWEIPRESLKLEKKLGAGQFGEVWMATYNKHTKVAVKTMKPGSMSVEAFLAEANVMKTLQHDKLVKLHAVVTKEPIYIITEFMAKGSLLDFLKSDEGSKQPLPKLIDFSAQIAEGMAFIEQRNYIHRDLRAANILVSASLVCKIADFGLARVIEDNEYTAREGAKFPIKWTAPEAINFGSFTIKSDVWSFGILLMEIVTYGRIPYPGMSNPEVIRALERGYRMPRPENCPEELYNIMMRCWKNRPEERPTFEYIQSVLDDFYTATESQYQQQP

Jak2 = Jak2 (UniProt O60674); test: as above
Sequence of Jak2 (O60674 whole entry, looked up): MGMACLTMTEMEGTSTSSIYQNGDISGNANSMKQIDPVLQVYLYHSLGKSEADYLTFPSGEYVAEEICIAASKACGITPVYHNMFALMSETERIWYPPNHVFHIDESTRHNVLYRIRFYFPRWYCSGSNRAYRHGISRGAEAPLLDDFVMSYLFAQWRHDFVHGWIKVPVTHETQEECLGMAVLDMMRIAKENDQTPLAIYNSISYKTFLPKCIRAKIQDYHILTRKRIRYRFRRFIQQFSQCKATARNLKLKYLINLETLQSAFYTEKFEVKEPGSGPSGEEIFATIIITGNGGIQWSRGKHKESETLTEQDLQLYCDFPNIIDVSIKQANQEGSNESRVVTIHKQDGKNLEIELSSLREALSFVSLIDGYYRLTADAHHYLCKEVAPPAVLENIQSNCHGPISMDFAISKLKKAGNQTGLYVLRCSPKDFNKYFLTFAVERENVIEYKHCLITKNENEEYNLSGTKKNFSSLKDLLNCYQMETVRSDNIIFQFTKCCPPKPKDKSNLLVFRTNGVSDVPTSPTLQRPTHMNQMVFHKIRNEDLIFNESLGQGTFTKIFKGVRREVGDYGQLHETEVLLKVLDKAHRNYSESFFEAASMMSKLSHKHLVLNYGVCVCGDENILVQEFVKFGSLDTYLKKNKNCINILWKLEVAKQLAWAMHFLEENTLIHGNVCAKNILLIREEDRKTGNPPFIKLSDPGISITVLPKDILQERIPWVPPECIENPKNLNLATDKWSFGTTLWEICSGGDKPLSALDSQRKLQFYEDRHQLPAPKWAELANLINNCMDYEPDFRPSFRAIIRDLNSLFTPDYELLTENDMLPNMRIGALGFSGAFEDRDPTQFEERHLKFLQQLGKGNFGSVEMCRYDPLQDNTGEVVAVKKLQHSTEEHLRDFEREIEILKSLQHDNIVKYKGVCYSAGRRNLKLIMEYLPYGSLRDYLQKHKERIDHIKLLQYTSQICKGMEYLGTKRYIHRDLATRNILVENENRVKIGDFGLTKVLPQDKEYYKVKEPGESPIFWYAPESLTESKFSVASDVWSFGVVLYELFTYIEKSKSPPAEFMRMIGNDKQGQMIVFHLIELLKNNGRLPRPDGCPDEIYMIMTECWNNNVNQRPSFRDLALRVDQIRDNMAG

MERTK = MERTK (UniProt Q12866); test: as above
Sequence of MERTK (Q12866 whole entry, looked up): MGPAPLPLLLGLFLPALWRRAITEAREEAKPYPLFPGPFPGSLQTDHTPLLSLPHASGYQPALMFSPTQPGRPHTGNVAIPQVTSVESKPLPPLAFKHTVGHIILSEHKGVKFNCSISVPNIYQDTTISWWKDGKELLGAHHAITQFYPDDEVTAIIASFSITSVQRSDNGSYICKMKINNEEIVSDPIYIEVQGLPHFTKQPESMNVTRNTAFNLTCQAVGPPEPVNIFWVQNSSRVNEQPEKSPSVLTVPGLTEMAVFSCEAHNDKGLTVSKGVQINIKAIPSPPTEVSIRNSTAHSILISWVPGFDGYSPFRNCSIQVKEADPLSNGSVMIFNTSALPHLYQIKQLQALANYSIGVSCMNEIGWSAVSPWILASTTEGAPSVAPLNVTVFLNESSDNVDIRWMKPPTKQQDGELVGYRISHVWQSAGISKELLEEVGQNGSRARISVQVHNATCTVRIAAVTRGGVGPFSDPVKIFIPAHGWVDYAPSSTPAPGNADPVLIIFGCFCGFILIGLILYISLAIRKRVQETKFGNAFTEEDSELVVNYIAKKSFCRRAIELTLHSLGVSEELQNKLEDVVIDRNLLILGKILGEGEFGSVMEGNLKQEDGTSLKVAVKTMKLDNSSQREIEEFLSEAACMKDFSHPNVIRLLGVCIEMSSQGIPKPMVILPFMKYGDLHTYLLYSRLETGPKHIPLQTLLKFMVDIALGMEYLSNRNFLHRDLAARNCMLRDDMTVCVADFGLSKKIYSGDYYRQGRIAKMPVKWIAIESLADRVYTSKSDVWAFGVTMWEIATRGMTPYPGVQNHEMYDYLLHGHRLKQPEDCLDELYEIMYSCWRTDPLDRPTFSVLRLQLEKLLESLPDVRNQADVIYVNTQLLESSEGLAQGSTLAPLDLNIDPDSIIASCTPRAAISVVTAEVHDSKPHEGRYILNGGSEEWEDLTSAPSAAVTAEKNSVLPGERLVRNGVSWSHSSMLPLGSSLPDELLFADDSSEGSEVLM

c-Abl (mouse) = test: as above
c-Src = test: as above
Grb2 SH2 = Grb2 SH2 (UniProt P62993); test: SH2 binding enrichment of the phosphorylated peptide, bacterial display (enrichment ratio); higher = better substrate or ligand; peptides without Tyr show the background
Sequence of Grb2 SH2 (P62993 whole entry, looked up): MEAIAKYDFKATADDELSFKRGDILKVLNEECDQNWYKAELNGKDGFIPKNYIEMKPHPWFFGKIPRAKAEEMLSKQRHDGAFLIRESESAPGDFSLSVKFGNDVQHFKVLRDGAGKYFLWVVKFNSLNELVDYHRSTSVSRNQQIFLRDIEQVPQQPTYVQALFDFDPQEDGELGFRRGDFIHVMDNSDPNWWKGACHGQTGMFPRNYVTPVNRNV

SHP2-C SH2 = test: as above
c-Src SH2 = test: as above
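Wherever SH2 binding enrichment of the phosphorylated peptide, bacterial display is given: peptide library displayed on the E. coli surface as eCPX fusions, selected cells deep-sequenced, score is each peptide's frequency after selection divided by its frequency in the input.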
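Wherever phosphorylation enrichment, bacterial display is given: 11-residue human phosphosite peptides and single-mutation variants displayed on the E. coli surface, counted by deep sequencing, each peptide's frequency after selection divided by its frequency in the unselected input library; frequency after pTyr selection over input frequency; kinase dosed for 20-30% of maximal phosphorylation in three min.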

Sequence of EPHB2 (P29323 whole entry, looked up): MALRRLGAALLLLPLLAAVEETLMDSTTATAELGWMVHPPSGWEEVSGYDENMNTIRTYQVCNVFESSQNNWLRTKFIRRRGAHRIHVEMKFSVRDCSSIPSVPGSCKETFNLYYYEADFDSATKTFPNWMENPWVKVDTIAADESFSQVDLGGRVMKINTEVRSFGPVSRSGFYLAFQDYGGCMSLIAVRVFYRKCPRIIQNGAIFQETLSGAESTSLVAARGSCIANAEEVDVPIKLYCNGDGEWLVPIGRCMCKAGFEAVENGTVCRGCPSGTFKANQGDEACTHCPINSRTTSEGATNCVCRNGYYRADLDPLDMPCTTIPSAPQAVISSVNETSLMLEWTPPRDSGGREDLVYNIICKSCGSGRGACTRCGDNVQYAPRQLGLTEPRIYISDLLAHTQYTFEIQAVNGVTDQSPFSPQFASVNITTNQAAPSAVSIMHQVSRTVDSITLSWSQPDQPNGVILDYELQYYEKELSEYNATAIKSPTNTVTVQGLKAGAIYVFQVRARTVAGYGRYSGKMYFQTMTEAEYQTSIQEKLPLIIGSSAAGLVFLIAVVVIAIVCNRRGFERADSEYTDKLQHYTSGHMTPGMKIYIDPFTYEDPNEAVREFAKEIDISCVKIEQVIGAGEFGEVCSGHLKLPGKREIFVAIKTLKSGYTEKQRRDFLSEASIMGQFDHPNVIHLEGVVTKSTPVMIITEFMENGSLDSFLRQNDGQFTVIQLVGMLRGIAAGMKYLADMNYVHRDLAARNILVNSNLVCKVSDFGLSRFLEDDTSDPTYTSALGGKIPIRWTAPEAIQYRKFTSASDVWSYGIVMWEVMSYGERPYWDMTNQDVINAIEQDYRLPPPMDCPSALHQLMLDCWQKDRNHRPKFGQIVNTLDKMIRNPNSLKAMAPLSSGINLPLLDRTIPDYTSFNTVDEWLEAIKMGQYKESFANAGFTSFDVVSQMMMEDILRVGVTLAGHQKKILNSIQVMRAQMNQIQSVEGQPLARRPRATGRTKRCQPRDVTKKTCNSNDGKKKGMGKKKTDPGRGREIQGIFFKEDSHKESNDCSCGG
Sequence of FGFR1 (P11362 whole entry, looked up): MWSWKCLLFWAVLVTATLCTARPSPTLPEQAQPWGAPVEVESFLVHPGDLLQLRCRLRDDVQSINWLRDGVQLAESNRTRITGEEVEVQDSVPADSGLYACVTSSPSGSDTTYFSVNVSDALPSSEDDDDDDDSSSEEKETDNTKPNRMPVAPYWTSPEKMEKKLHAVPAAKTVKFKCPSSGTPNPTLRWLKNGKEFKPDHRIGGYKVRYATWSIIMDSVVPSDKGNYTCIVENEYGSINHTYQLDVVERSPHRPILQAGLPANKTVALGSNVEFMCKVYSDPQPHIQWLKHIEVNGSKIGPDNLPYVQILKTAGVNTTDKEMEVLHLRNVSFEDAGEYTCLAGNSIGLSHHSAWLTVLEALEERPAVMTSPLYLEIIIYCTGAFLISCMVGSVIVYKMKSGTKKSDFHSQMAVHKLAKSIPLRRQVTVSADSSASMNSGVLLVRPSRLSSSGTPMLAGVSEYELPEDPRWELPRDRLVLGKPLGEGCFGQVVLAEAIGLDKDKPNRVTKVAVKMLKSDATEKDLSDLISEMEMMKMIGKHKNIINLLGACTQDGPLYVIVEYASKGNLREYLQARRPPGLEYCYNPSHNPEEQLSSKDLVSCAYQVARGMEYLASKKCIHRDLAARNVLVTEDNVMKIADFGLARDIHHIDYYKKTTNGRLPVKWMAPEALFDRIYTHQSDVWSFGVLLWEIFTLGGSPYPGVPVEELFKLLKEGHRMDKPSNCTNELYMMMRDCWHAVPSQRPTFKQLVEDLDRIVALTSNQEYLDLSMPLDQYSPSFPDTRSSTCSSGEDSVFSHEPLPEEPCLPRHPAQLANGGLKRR

With FTYDPYSEEDP [IL2RB_Y387] the phosphorylation enrichment (AncSZ) was 1.05, the phosphorylation enrichment (EPHB1) was 0.564 and the phosphorylation enrichment (EPHB2) was 0.581. It also gave a phosphorylation enrichment (FGFR1) of 0.503, a phosphorylation enrichment (FGFR3) of 0.822 and a phosphorylation enrichment (Fer (mouse)) of 0.475. For the same sequence, the phosphorylation enrichment (Fes) was 1.15, the phosphorylation enrichment (Fyn) was 1.28 and the phosphorylation enrichment (Hck) was 1.01. The phosphorylation enrichment (Jak2) was 0.957, the phosphorylation enrichment (MERTK) was 0.389 and the phosphorylation enrichment (c-Abl (mouse)) was 0.654. The phosphorylation enrichment (c-Src) was 1.46, the SH2 binding enrichment (Grb2 SH2) was 0.851 and the SH2 binding enrichment (SHP2-C SH2) was 0.694. It also gave an SH2 binding enrichment (c-Src SH2) of 0.555.
GAPATYEGDAR [CACNA1A_Y1013] was tested, and the phosphorylation enrichment (AncSZ) was 0.58, the phosphorylation enrichment (EPHB1) was 0.354 and the phosphorylation enrichment (EPHB2) was 0.499. The phosphorylation enrichment (FGFR1) was 0.543, the phosphorylation enrichment (FGFR3) was 0.51 and the phosphorylation enrichment (Fer (mouse)) was 0.565. It also gave a phosphorylation enrichment (Fes) of 0.666, a phosphorylation enrichment (Fyn) of 0.388 and a phosphorylation enrichment (Hck) of 0.467. The phosphorylation enrichment (Jak2) was 0.497, the phosphorylation enrichment (MERTK) was 0.345 and the phosphorylation enrichment (c-Abl (mouse)) was 0.397. The phosphorylation enrichment (c-Src) was 0.368, the SH2 binding enrichment (Grb2 SH2) was 0.893 and the SH2 binding enrichment (SHP2-C SH2) was 0.669. It also gave an SH2 binding enrichment (c-Src SH2) of 0.649.
For GAVGHYVLAER [HFE_Y342_M339V], the phosphorylation enrichment (AncSZ) was 0.865, the phosphorylation enrichment (EPHB1) was 0.395 and the phosphorylation enrichment (EPHB2) was 0.415. For the same sequence, the phosphorylation enrichment (FGFR1) was 0.449, the phosphorylation enrichment (FGFR3) was 1.23 and the phosphorylation enrichment (Fer (mouse)) was 0.363. The phosphorylation enrichment (Fes) was 0.711, the phosphorylation enrichment (Fyn) was 0.47 and the phosphorylation enrichment (Hck) was 0.454. The phosphorylation enrichment (Jak2) was 0.453, the phosphorylation enrichment (MERTK) was 0.573 and the phosphorylation enrichment (c-Abl (mouse)) was 0.46. The phosphorylation enrichment (c-Src) was 0.503, the SH2 binding enrichment (Grb2 SH2) was 0.634 and the SH2 binding enrichment (SHP2-C SH2) was 0.851. The SH2 binding enrichment (c-Src SH2) was 2.88.
Work on GDKENYGLPQP [BUB1_Y538_N534D] yielded a phosphorylation enrichment (AncSZ) of 0.873, a phosphorylation enrichment (EPHB1) of 0.509 and a phosphorylation enrichment (EPHB2) of 0.794. For the same sequence, the phosphorylation enrichment (FGFR1) was 0.452, the phosphorylation enrichment (FGFR3) was 0.567 and the phosphorylation enrichment (Fer (mouse)) was 0.419. The phosphorylation enrichment (Fes) was 0.859, the phosphorylation enrichment (Fyn) was 0.461 and the phosphorylation enrichment (Hck) was 0.469. It also gave a phosphorylation enrichment (Jak2) of 0.715, a phosphorylation enrichment (MERTK) of 0.432 and a phosphorylation enrichment (c-Abl (mouse)) of 0.632. For the same sequence, the phosphorylation enrichment (c-Src) was 0.433, the SH2 binding enrichment (Grb2 SH2) was 0.866 and the SH2 binding enrichment (SHP2-C SH2) was 0.742. The SH2 binding enrichment (c-Src SH2) was 0.518.
Work on GEDEPYSEPYA [APBA1_Y183] yielded a phosphorylation enrichment (AncSZ) of 1.35, a phosphorylation enrichment (EPHB1) of 0.542 and a phosphorylation enrichment (EPHB2) of 0.673. The phosphorylation enrichment (FGFR1) was 0.516, the phosphorylation enrichment (FGFR3) was 0.756 and the phosphorylation enrichment (Fer (mouse)) was 0.618. For the same sequence, the phosphorylation enrichment (Fes) was 1.19, the phosphorylation enrichment (Fyn) was 0.55 and the phosphorylation enrichment (Hck) was 0.477. For the same sequence, the phosphorylation enrichment (Jak2) was 1.15, the phosphorylation enrichment (MERTK) was 0.531 and the phosphorylation enrichment (c-Abl (mouse)) was 0.845. The phosphorylation enrichment (c-Src) was 0.551, the SH2 binding enrichment (Grb2 SH2) was 0.903 and the SH2 binding enrichment (SHP2-C SH2) was 0.742. It also gave an SH2 binding enrichment (c-Src SH2) of 0.582.
In the case of GEEIKYTLWLS [OTC_Y55_M56T], the phosphorylation enrichment (AncSZ) is reported as 1.35, the phosphorylation enrichment (EPHB1) is reported as 0.704 and the phosphorylation enrichment (EPHB2) is reported as 0.605. It also gave a phosphorylation enrichment (FGFR1) of 0.538, a phosphorylation enrichment (FGFR3) of 0.882 and a phosphorylation enrichment (Fer (mouse)) of 0.712. The phosphorylation enrichment (Fes) was 1.4, the phosphorylation enrichment (Fyn) was 0.418 and the phosphorylation enrichment (Hck) was 0.529. For the same sequence, the phosphorylation enrichment (Jak2) was 1.21, the phosphorylation enrichment (MERTK) was 0.512 and the phosphorylation enrichment (c-Abl (mouse)) was 0.873. It also gave a phosphorylation enrichment (c-Src) of 0.443, an SH2 binding enrichment (Grb2 SH2) of 0.725 and an SH2 binding enrichment (SHP2-C SH2) of 0.644. For the same sequence, the SH2 binding enrichment (c-Src SH2) was 0.379.
With GEETDYTPVWC [UROD_Y30] the phosphorylation enrichment (AncSZ) was 1.62, the phosphorylation enrichment (EPHB1) was 0.587 and the phosphorylation enrichment (EPHB2) was 0.791. For the same sequence, the phosphorylation enrichment (FGFR1) was 0.655, the phosphorylation enrichment (FGFR3) was 0.92 and the phosphorylation enrichment (Fer (mouse)) was 1.02. The phosphorylation enrichment (Fes) was 1.43, the phosphorylation enrichment (Fyn) was 0.535 and the phosphorylation enrichment (Hck) was 0.556. For the same sequence, the phosphorylation enrichment (Jak2) was 1.04, the phosphorylation enrichment (MERTK) was 0.468 and the phosphorylation enrichment (c-Abl (mouse)) was 0.785. The phosphorylation enrichment (c-Src) was 0.552, the SH2 binding enrichment (Grb2 SH2) was 0.864 and the SH2 binding enrichment (SHP2-C SH2) was 0.748. The SH2 binding enrichment (c-Src SH2) was 0.687.
GEPLSHTRFSL [TFRC_Y20_Y20H] gave a phosphorylation enrichment (AncSZ) of 0.599, a phosphorylation enrichment (EPHB1) of 0.449 and a phosphorylation enrichment (EPHB2) of 0.36. It also gave a phosphorylation enrichment (FGFR1) of 0.424, a phosphorylation enrichment (FGFR3) of 0.435 and a phosphorylation enrichment (Fer (mouse)) of 0.448. The phosphorylation enrichment (Fes) was 0.828, the phosphorylation enrichment (Fyn) was 0.398 and the phosphorylation enrichment (Hck) was 0.478. It also gave a phosphorylation enrichment (Jak2) of 0.742, a phosphorylation enrichment (MERTK) of 0.424 and a phosphorylation enrichment (c-Abl (mouse)) of 0.637. For the same sequence, the phosphorylation enrichment (c-Src) was 0.456, the SH2 binding enrichment (Grb2 SH2) was 0.866 and the SH2 binding enrichment (SHP2-C SH2) was 0.641. For the same sequence, the SH2 binding enrichment (c-Src SH2) was 0.487.
